Results from publication PMC3084675 (Molecular Biology of the Cell, 2011).

Columns and labels:
[1] = target: FAK (focal adhesion kinase) (UniProt O35346); assay: S-bead precipitation of SFB-FAK, Dyn2 blot; details: reference: wild-type Dyn2; sites Y231,Y597
[2] = target: FAK (focal adhesion kinase) FERM domain (UniProt O35346); assay: GST-FERM pull-down of His-Dyn2; details: reference: His-Dyn2 wild type from TKB1 (phosphorylated); sites Y231,Y597
[3] = target: SFB-FAK (S protein, Flag, and streptavidin binding peptide triple tagged FAK) (rat, UniProt O35346 1-1055); assay: co-IP
Sequence of SFB-FAK (S protein, Flag, and streptavidin binding peptide triple tagged FAK) (O35346 whole entry, the tested form may be a part): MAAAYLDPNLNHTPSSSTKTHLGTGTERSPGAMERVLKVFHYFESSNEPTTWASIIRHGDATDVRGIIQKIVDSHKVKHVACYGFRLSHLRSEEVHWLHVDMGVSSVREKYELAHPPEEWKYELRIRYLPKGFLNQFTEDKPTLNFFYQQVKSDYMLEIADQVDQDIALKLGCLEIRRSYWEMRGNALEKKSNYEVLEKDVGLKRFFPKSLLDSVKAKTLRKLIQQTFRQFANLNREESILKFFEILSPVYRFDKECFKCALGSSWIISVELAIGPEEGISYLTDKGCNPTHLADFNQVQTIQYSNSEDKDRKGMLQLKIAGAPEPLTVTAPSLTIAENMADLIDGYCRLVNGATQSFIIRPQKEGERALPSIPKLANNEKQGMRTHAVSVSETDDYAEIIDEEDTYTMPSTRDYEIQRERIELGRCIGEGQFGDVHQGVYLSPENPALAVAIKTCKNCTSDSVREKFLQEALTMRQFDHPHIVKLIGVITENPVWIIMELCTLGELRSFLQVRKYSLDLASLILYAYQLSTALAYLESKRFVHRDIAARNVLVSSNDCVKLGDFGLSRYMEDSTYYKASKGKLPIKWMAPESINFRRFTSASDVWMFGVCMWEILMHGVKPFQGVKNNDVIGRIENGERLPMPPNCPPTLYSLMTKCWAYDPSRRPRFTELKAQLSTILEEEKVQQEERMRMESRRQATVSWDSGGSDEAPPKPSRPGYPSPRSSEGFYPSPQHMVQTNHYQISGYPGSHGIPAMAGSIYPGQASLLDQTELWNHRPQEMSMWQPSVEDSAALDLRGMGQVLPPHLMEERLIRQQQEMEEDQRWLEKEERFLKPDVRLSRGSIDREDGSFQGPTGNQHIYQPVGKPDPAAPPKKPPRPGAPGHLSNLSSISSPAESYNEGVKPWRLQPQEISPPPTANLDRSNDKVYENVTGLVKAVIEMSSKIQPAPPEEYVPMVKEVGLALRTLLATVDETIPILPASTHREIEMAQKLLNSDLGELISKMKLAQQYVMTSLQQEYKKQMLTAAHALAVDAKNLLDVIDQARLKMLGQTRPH

[4] = target: T1, GST-FERM (FERM domain of FAK) (rat, UniProt O35346 35-355); assay: pull-down
T1 sequence (looked up): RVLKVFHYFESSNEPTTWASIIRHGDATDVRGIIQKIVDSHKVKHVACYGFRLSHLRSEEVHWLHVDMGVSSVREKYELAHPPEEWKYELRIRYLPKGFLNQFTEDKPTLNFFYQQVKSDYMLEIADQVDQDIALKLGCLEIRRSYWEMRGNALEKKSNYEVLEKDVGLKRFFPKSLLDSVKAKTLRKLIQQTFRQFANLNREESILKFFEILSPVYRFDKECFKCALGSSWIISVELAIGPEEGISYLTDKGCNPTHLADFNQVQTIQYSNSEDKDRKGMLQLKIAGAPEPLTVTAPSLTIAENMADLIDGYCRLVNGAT

## Dyn2 (dynamin-2) (from UniProt P39052) Dyn2 Y231F/Y597F (YF)
[1]
  fold change: weaker; reference 3.2 ± 0.6-fold

## Dyn2 (dynamin-2) (from UniProt P39052) His-Dyn2 Y231F/Y597F from TKB1
[2]
  fold change: weaker; reference threefold

B1: Dyn2 WT (dynamin-2, wild type), expressed in cells (natural protein)
chain: MGNRGMEELIPLVNKLQDAFSSIGQSCHLDLPQIAVVGGQSAGKSSVLENFVGRDFLPRGSGIVTRRPLILQLIFSKTEYAEFLHCKSKKFTDFDEVRQEIEAETDRVTGTNKGISPVPINLRVYSPHVLNLTLIDLPGITKVPVGDQPPDIEYQIKDMILQFISRESSLILAVTPANMDLANSDALKLAKEVDPQGLRTIGVITKLDLMDEGTDARDVLENKLLPLRRGYIGVVNRSQKDIEGRKDIRAALAAERKFFLSHPAYRHMADRMGTPHLQKTLNQQLTNHIRESLPTLRSKLQSQLLSLEKEVEEYKNFRPDDPTRKTKALLQMVQQFGVDFEKRIEGSGDQVDTLELSGGARINRIFHERFPFELVKMEFDEKDLRREISYAIKNIHGVRTGLFTPDLAFEAIVKKQVVKLKEPCLKCVDLVIQELISTVRQCTSKLSSYPRLREETERIVTTYIREREGRTKDQILLLIDIEQSYINTNHEDFIGFANAQQRSTQLNKKRAIPNQGEILVIRRGWLTINNISLMKGGSKEYWFVLTAESLSWYKDEEEKEKKYMLPLDNLKIRDVEKGFMSNKHVFAIFNTEQRNVYKDLRQIELACDSQEDVDSWKASFLRAGVYPEKDQAENEDGAQENTFSMDPQLERQVETIRNLVDSYVAIINKSIRDLMPKTIMHLMINNTKAFIHHELLAYLYSSADQSSLMEESAEQAQRRDDMLRMYHALKEALNIIGDISTSTVSTPVPPPVDDTWLQNTSSHSPTPQRRPVSSVHPPGRPPAVRGPTPGPPLIPMPVGATSSFSAPPIPSRPGPQNVFANNDPFSAPPQIPSRPARIPPGIPPGVPSRRAPAAPSRPTIIRPAEPSLLD
[3]
  fold co-precipitated relative to Dyn2 YF: 3.2 ± 0.6 fold

B2: His-Dyn2 WT purified from TKB1 E. coli (pDyn2 protein) (natural protein)
chain: MGNRGMEELIPLVNKLQDAFSSIGQSCHLDLPQIAVVGGQSAGKSSVLENFVGRDFLPRGSGIVTRRPLILQLIFSKTEYAEFLHCKSKKFTDFDEVRQEIEAETDRVTGTNKGISPVPINLRVYSPHVLNLTLIDLPGITKVPVGDQPPDIEYQIKDMILQFISRESSLILAVTPANMDLANSDALKLAKEVDPQGLRTIGVITKLDLMDEGTDARDVLENKLLPLRRGYIGVVNRSQKDIEGRKDIRAALAAERKFFLSHPAYRHMADRMGTPHLQKTLNQQLTNHIRESLPTLRSKLQSQLLSLEKEVEEYKNFRPDDPTRKTKALLQMVQQFGVDFEKRIEGSGDQVDTLELSGGARINRIFHERFPFELVKMEFDEKDLRREISYAIKNIHGVRTGLFTPDLAFEAIVKKQVVKLKEPCLKCVDLVIQELISTVRQCTSKLSSYPRLREETERIVTTYIREREGRTKDQILLLIDIEQSYINTNHEDFIGFANAQQRSTQLNKKRAIPNQGEILVIRRGWLTINNISLMKGGSKEYWFVLTAESLSWYKDEEEKEKKYMLPLDNLKIRDVEKGFMSNKHVFAIFNTEQRNVYKDLRQIELACDSQEDVDSWKASFLRAGVYPEKDQAENEDGAQENTFSMDPQLERQVETIRNLVDSYVAIINKSIRDLMPKTIMHLMINNTKAFIHHELLAYLYSSADQSSLMEESAEQAQRRDDMLRMYHALKEALNIIGDISTSTVSTPVPPPVDDTWLQNTSSHSPTPQRRPVSSVHPPGRPPAVRGPTPGPPLIPMPVGATSSFSAPPIPSRPGPQNVFANNDPFSAPPQIPSRPARIPPGIPPGVPSRRAPAAPSRPTIIRPAEPSLLD
modifications: tyrosine-phosphorylated: recognised by the 4G10 and pDyn2 (pTyr-231) antibodies
[4]
  fold association relative to Dyn2 YF: 3 fold
